Article PMC6522533 (2019)

Columns and labels:
Assay in all cases: GST pull-down, anti-Smad7 immunoblot
GST-β-catenin aa575–683 = target: T1, GST-β-catenin aa575–683 (Mus musculus (Mouse), UniProt Q02248)
T1 chain: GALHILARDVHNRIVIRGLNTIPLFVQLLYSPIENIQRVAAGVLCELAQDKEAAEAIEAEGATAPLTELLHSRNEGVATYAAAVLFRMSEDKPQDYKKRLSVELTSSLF

GST-β-catenin aa575–696 = target: T2, GST-β-catenin aa575–696 (Mus musculus (Mouse), UniProt Q02248)
T2 chain: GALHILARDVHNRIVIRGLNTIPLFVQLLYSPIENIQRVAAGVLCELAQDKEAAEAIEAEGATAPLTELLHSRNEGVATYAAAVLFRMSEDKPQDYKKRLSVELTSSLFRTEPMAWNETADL

GST-β-catenin aa422–683 = target: T3, GST-β-catenin aa422–683 (Mus musculus (Mouse), UniProt Q02248)
T3 chain: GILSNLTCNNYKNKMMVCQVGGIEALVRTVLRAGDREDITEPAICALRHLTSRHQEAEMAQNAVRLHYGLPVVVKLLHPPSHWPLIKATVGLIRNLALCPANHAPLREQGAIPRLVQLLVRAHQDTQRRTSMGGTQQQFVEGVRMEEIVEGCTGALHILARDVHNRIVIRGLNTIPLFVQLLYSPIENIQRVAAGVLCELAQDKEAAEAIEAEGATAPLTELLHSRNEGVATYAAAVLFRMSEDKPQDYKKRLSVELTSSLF

GST-β-catenin aa1–106 = target: T4, GST-β-catenin aa1–106 (Mus musculus (Mouse), UniProt Q02248)
T4 chain: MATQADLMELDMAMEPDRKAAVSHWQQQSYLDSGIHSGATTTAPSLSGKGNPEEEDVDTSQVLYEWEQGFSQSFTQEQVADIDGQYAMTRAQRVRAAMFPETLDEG

GST-β-catenin aa1–574 = target: T5, GST-β-catenin aa1–574 (Mus musculus (Mouse), UniProt Q02248)
T5 chain: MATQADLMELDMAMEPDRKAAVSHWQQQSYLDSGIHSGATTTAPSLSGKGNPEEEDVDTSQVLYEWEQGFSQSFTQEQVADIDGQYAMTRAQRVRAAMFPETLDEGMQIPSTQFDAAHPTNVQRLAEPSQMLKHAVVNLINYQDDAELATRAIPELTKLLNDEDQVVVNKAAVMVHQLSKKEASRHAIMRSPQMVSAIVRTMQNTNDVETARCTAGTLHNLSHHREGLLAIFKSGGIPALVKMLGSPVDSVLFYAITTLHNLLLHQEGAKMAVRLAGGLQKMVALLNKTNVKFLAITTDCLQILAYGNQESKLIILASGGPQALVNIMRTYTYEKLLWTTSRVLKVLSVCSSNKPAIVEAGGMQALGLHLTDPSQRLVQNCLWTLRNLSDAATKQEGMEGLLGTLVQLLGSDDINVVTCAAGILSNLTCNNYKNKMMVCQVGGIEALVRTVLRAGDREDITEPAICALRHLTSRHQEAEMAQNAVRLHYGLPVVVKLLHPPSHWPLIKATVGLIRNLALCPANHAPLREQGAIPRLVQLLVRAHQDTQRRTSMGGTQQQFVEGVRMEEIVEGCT

GST-β-catenin aa120–683 = target: T6, GST-β-catenin aa120–683 (Mus musculus (Mouse), UniProt Q02248)
T6 chain: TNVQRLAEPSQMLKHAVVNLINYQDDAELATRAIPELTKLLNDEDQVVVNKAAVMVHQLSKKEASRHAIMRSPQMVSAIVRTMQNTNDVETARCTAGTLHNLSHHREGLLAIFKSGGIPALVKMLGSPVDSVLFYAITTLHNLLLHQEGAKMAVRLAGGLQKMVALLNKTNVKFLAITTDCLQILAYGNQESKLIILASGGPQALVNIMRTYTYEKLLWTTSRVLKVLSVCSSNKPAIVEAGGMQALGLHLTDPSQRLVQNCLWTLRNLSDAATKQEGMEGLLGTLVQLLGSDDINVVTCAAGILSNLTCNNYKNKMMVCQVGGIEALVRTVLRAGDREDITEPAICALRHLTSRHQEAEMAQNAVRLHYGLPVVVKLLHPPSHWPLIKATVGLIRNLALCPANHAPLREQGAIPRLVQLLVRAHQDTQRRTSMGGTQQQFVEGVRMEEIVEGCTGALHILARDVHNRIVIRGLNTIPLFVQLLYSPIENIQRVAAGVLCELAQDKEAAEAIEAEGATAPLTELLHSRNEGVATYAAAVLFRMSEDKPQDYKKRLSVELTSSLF

binding result (GST-β-catenin aa575–683): binds | binding result (GST-β-catenin aa575–696): binds | binding result (GST-β-catenin aa422–683): binds | binding result (GST-β-catenin aa1–106): no binding | binding result (GST-β-catenin aa1–574): no binding | binding result (GST-β-catenin aa120–683): binds
B1: Smad7 (GST tag removed by thrombin) (protein)
chain: MFRTKRSALVRRLWRSRAPGGEDEEEGVGGGGGGGELRGEGATDGRAYGAGGGGAGRAGCCLGKAVRGAKGHHHPHPPTSGAGAAGGAEADLKALTHSVLKKLKERQLELLLQAVESRGGTRTACLLLPGRLDCRLGPGAPASAQPAQPPSSYSLPLLLCKVFRWPDLRHSSEVKRLCCCESYGKINPELVCCNPHHLSRLCELESPPPPYSRYPMDFLKPTAGCPDAVPSSAETGGTNYLAPGGLSDSQLLLEPGDRSHWCVVAYWEEKTRVGRLYCVQEPSLDIFYDLPQGNGFCLGQLNSDNKSQLVQKVRSKIGCGIQLTREVDGVWVYNRSSYPIFIKSATLDNPDSRTLLVHKVFPGFSIKAFDYEKAYSLQRPNDHEFMQQPWTGFTVQISFVKGWGQCYTRQFISSCPCWLEVIFNSR
